Experimental findings from the supplement of paper PMC10567573 are described below.

± gives the standard deviation.

The nature of this series: protein stability index of a GFP-peptide fusion (GPS, HEK-293T) (PSI 1-6); higher = more stable. The settings on record: c terminus: a fixed tail appended.
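Note: 24-mer peptide tiles fused after GFP, lentivirally expressed, FACS-sorted into six equal bins by GFP/DsRed ratio, decoded by Illumina sequencing, PSI is the read-weighted mean bin number.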

Turning to ENVLAALEGLNLSILKAMGKTKKD [NECAB1], the protein stability index by setting is: (treatment: DMSO) 3.12 ± 0.12; (treatment: MLN4924 1 uM, 8 h) 3.31 ± 0.18.

As to EPHPRPLLQRELMVPGTRHSAVLR [TNXB], the protein stability index was found to be 3.93 ± 0.42 (treatment: DMSO) and 4.2 ± 0.59 (treatment: MLN4924 1 uM, 8 h).

With EPLQALLERASATLQDLVFDECGI [PRAME], the protein stability index is, setting by setting: (treatment: DMSO) 2.25 ± 0.2; (treatment: MLN4924 1 uM, 8 h) 2.67 ± 0.18.

On to EQKLRACLEGSINEHSAHCPHTPE [RPAIN], for which the protein stability index came out at 4.92 ± 0.28 (treatment: DMSO) and 4.99 ± 0.23 (treatment: MLN4924 1 uM, 8 h).

With EQKTGTEAEAADSGAVGARRFLLC [MFSD9], the protein stability index reads like this: (treatment: DMSO) 4.48 ± 0.15; (treatment: MLN4924 1 uM, 8 h) 4.42 ± 0.1.

Consider EQPFIPVEVLVDLFLKEGACDELF [PRAME], for which the protein stability index came out at 2.39 ± 0.16 (treatment: DMSO) and 2.39 ± 0.35 (treatment: MLN4924 1 uM, 8 h).

In turn, EQRTIQAQKESLQNQHHSASLQAS [APBB1IP] registered a protein stability index (treatment: DMSO) of 5.16 ± 0.19 and a protein stability index (treatment: MLN4924 1 uM, 8 h) of 4.99 ± 0.18.

EQVRFLMKSYSFLREAVPGILRAR [SOAT2]: the protein stability index (treatment: DMSO) is 1.85 ± 0.62 and the protein stability index (treatment: MLN4924 1 uM, 8 h) was 2.1 ± 0.51.

As to ERDREREPEAASSRGSPVRVKREF [USP39], the protein stability index stood at 5.4 ± 0.26 (treatment: DMSO) and 5.39 ± 0.17 (treatment: MLN4924 1 uM, 8 h).

Consider ERIEARLATLEGDDPSLRKTHSSP [PSD2], for which the protein stability index reads like this: (treatment: DMSO) 5.08 ± 0.37; (treatment: MLN4924 1 uM, 8 h) 5.09 ± 0.18.

As for ERPRMNANSLLASPTGLSPYLRFG [CRY1], the protein stability index was determined as 2.89 ± 0.21 (treatment: DMSO) and 2.98 ± 0.22 (treatment: MLN4924 1 uM, 8 h).

ERYRHEIAHDGQRIYVLGGGTSWT [KLHDC10]: the protein stability index came to 2.83 ± 0.48 (treatment: DMSO) and 2.79 ± 0.23 (treatment: MLN4924 1 uM, 8 h).

Take ESEDCKLPSNPCATTNACEKPIGS [KRT33B]: the protein stability index was 5.48 ± 0.097 (treatment: DMSO) and 5.34 ± 0.18 (treatment: MLN4924 1 uM, 8 h).

Consider ESFRDLQLRLLQAPLQADLTEQVW [SCARA5], for which the protein stability index by setting is: (treatment: DMSO) 2.59 ± 0.089; (treatment: MLN4924 1 uM, 8 h) 3.1 ± 0.4.

As to ESLMALCTDFCLRNLDGTLGYLLD [ZER1], the protein stability index by setting is: (treatment: DMSO) 2.71 ± 0.4; (treatment: MLN4924 1 uM, 8 h) 2.94 ± 0.39.

Turning to ESPIPEDKDRRFVFSYFLATDMIS [EFHC1], the protein stability index reads like this: (treatment: DMSO) 2.33 ± 0.28; (treatment: MLN4924 1 uM, 8 h) 2.23 ± 0.29.

In the case of ESPSLTSTPVCSQKVVVTTPLHRD [MYBL2], the protein stability index runs as follows: (treatment: DMSO) 4.83 ± 0.2; (treatment: MLN4924 1 uM, 8 h) 4.5 ± 0.11.

As for ESSQTDLKLVAHPRAKSKVWKYFG [ZBED1], the protein stability index is, setting by setting: (treatment: DMSO) 3.02 ± 0.31; (treatment: MLN4924 1 uM, 8 h) 3.42 ± 0.27.

ESTTKESSEASQLEDAAGGDSASE [FBXO34]: the protein stability index is 5.61 ± 0.34 (treatment: DMSO) and 5.71 ± 0.12 (treatment: MLN4924 1 uM, 8 h).

On to ESVVKSEDFSLPAYMDRRDHPLPE [COX4I1], for which the protein stability index amounted to 5.1 ± 0.17 (treatment: DMSO) and 4.82 ± 0.098 (treatment: MLN4924 1 uM, 8 h).

As to ETHLRHMKALLGSYAHSVEDTHVQ [FCHO1], the protein stability index was found to be 3.49 ± 0.5 (treatment: DMSO) and 3.35 ± 0.29 (treatment: MLN4924 1 uM, 8 h).

Sequence ETIKCVVVGDNAVGKTRLICARAC [RHOBTB1] displayed a protein stability index (treatment: DMSO) of 2.39 ± 0.2 and a protein stability index (treatment: MLN4924 1 uM, 8 h) of 2.44 ± 0.21.

For the sequence ETKKVLGLQDTITAELVVIEDAAE [PALM], the protein stability index reads like this: (treatment: DMSO) 4.92 ± 0.35; (treatment: MLN4924 1 uM, 8 h) 4.78 ± 0.32.

For ETLQPSVWFGGREHVLMFAKLALY [TMEM175], the protein stability index is, setting by setting: (treatment: DMSO) 2.52 ± 0.46; (treatment: MLN4924 1 uM, 8 h) 2.44 ± 0.43.

ETRDWGGAQFEGEKGRALQIRDWR [ZSWIM9]: the protein stability index turned out to be 3.63 ± 0.32 (treatment: DMSO) and 3.84 ± 0.15 (treatment: MLN4924 1 uM, 8 h).

Consider ETTERMKCLYYLYATLDLNAVKYV [PDS5B], for which the protein stability index runs as follows: (treatment: DMSO) 2.88 ± 0.3; (treatment: MLN4924 1 uM, 8 h) 3.12 ± 0.47.

Consider ETVADVRTLPNASTVDNIRSIFGN [MLH1], for which the protein stability index runs as follows: (treatment: DMSO) 4.21 ± 0.18; (treatment: MLN4924 1 uM, 8 h) 4.19 ± 0.11.

ETVQTWIELLTGETWNPFKLQYQL [GOLPH3L]: the protein stability index reads like this: (treatment: DMSO) 2.65 ± 0.6; (treatment: MLN4924 1 uM, 8 h) 2.74 ± 0.71.

Turning to ETVVNRIAAGEVIQRPANAIKEMI [MLH1], the protein stability index reads like this: (treatment: DMSO) 3.17 ± 0.17; (treatment: MLN4924 1 uM, 8 h) 3.36 ± 0.19.

Take EVCCTSIVYATEKKQTKVEFPEAR [KCTD13]: the protein stability index reads like this: (treatment: DMSO) 3.88 ± 0.34; (treatment: MLN4924 1 uM, 8 h) 3.9 ± 0.28.

For the sequence EVDEEGFTVRPDVTQNSTAEPSRF [FCHO1], the protein stability index by setting is: (treatment: DMSO) 5.26 ± 0.13; (treatment: MLN4924 1 uM, 8 h) 5.26 ± 0.2.

Turning to EVFEGREDSILGDPKKLLTQHFVQ [MAGEA3], the protein stability index reads like this: (treatment: DMSO) 3.42 ± 0.49; (treatment: MLN4924 1 uM, 8 h) 3.29 ± 0.4.

With EVMKCIVEVISDTLSKPSPMPVSQ [CHGA], the protein stability index runs as follows: (treatment: DMSO) 2.55 ± 0.18; (treatment: MLN4924 1 uM, 8 h) 2.48 ± 0.4.

Regarding EVSSIQVRRKPQHGVCSQLLGNYR [SERPINB9P1], the protein stability index is, setting by setting: (treatment: DMSO) 2.84 ± 0.38; (treatment: MLN4924 1 uM, 8 h) 2.94 ± 0.29.

For EWVISTGHDKCVSWMCTRSGNMLG [WDFY1], the protein stability index amounted to 2.09 ± 0.37 (treatment: DMSO) and 2.01 ± 0.41 (treatment: MLN4924 1 uM, 8 h).

Regarding EYLENQVIKDKDDSVDAQNICHVW [RNF180], the protein stability index reads like this: (treatment: DMSO) 3.42 ± 0.26; (treatment: MLN4924 1 uM, 8 h) 3.57 ± 0.27.
